Assay results reported in patent publication US20210253718A1, “FRIZZLED5 PROTEIN-BINDING AGENTS” (Modmab Therapeutics Corporation, priority 2016, published 2021).
Positions count from the first letter of the chain named. Each block holds one molecule with its values, some of them ahead of it.

Assays:
[1] = test system: ASPC-1 cells; experiment: Effect of anti-FZD5 Fabs on proliferation of pancreatic cancer cell lines (percent growth inhibition); format: cell-based, human; conditions: Fab 2 μg/ml
[2] = test system: PATU8988S cells; experiment: as above; format: cell-based, human; conditions: Fab 10 μg/ml
Procedure: (§1) The effect of presently disclosed anti-FZD5 Fabs on proliferation of RNF43 loss-of-function mutant pancreatic cancer cell lines HPAFII, PATU8988S and ASPC-1; and on pancreatic cancer cell line RWP1, was tested at […] and 10 μg/ml.

[3] = test system: HPAFII cells; experiment: as above; format: cell-based, human; conditions: for percent growth inhibition, HPAFII 2 μg/ml: Fab 2 μg/ml; for percent growth inhibition, HPAFII 10 μg/ml: Fab 10 μg/ml
Procedure: as §1

[4] = test system: RWP1 cells; experiment: as above; format: cell-based, human; conditions: Fab 10 μg/ml
Procedure: as §1

[5] = test system: ASPC-1 cells; experiment: as above; format: cell-based, human; conditions: Fab 10 μg/ml
Procedure: as §1

[6] = molecular target: T1, FZD3 CRD (Homo sapiens, UniProt Q9NPG1); experiment: Immunofluorescence of anti-FZD5 Fab binding to CHO cells overexpressing Frizzled CRD; parameters: key: −: no binding; +: very weak binder; ++: weak binder; +++: good binder; ++++: very good binder
T1 construct: CRD of FZD1, FZD2, FZD3, FZD4, FZD5, FZD6, FZD7, FZD8, FZD9 or FZD10; GPI anchor signal (C); expressed in transfected cells; host or cells: CHO cells, lentiviral pLenti-puro
T1 sequence (Q9NPG1 23-136 limits assumed): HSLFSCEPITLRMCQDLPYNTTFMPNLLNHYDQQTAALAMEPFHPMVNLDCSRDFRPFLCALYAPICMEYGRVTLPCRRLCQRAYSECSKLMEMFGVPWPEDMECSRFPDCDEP
How it was run: (§2)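 Using immunofluorescence plus flow cytometry, we examine Fab binding to surface CRDs of individual Frizzled receptors, each expressed on CHO cells as a myc-GPI fusion from a lentiviral vector.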

[7] = molecular target: T2, FZD8 CRD (Homo sapiens, UniProt Q9H461); experiment: as above; parameters: key: −: no binding; +: very weak binder; ++: weak binder; +++: good binder; ++++: very good binder
T2 construct: K31-D155; GPI anchor signal (C); expressed in transfected cells; host or cells: CHO cells, lentiviral pLenti-puro
T2 sequence (Q9H461 31-155): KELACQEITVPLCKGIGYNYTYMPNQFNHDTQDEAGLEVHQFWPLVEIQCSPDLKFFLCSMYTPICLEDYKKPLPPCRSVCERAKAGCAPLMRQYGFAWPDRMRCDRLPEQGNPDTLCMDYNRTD
How it was run: as §2

[8] = molecular target: T3, FZD7 CRD (Homo sapiens, UniProt O75084); experiment: as above; parameters: key: −: no binding; +: very weak binder; ++: weak binder; +++: good binder; ++++: very good binder
T3 construct: D45-S169; GPI anchor signal (C); expressed in transfected cells; host or cells: CHO cells, lentiviral pLenti-puro
How it was run: as §2

[9] = test system: CHO cells not expressing Frizzled CRD; experiment: Flow cytometry of anti-FZD5 Fab binding to CHO cells not expressing Frizzled CRD (background)
Text: The binding of anti-FZD5 Fabs to cell surface-expressed Frizzled protein was further determined for each member of the Frizzled family via flow cytometry and immunofluorescence analysis of a panel of 10 CHO cell lines, each ectopically over-expressing the extracellular cysteine-rich domain (CRD) of a different Frizzled protein family member.

[10] = test system: PATU8988S cells; experiment: Effect of anti-FZD5 Fabs on proliferation of pancreatic cancer cell lines (percent growth inhibition); format: cell-based, human; conditions: Fab 2 μg/ml
[11] = test system: RWP1 cells; experiment: as above; format: cell-based, human; conditions: Fab 2 μg/ml

Immunofluorescence binding, Frizzled CRD overexpressed on CHO cells: FZD3 [6]: −
Immunofluorescence binding, Frizzled CRD overexpressed on CHO cells: FZD8 [7]: −
Immunofluorescence binding, Frizzled CRD overexpressed on CHO cells: FZD7 [8]: +
B1: Fab-2905: anti-FZD5 Fab with antibody variable region Fv-2905; CDR SEQ ID NOs: 35, 36, 44, 83, 120, 157 (antibody, V domains shown)
VH: EVQLVESGGGLVQPGGSLRLSCAASGFNLSYYYMHWVRQAPGKGLEWVASIYSSYSYTSYADSVKGRFTISADTSKNTAYLQMNSLRAEDTAVYYCARSGYALDYWGQGTLVTVSS
VL: DIQMTQSPSSLSASVGDRVTITCRASQSVSSAVAWYQQKPGKAPKLLIYSASSLYSGVPSRFSGSRSGTDFTLTISSLQPEDFATYYCQQSSWYYGYPFTFGQGTKVEIK
percent growth inhibition, ASPC-1 2 μg/ml [1]: −14.51%
percent growth inhibition, PATU8988s 10 μg/ml [2]: −46.23%
percent growth inhibition, HPAFII 2 μg/ml [3]: 0.41%
percent growth inhibition, HPAFII 10 μg/ml [3]: −12.83%
percent growth inhibition, RWP1 10 μg/ml [4]: 41.10%
percent growth inhibition, ASPC-1 10 μg/ml [5]: −10.34%
Median fluorescence, Frizzled CRD overexpressed on CHO cells: None [9]: 3.62
percent growth inhibition, PATU8988s 2 μg/ml [10]: −26.66%
percent growth inhibition, RWP1 2 μg/ml [11]: 62.88%

Immunofluorescence binding, Frizzled CRD overexpressed on CHO cells: FZD3 [6]: −
Immunofluorescence binding, Frizzled CRD overexpressed on CHO cells: FZD8 [7]: +
Immunofluorescence binding, Frizzled CRD overexpressed on CHO cells: FZD7 [8]: +
B2: Fab-2906: anti-FZD5 Fab with antibody variable region Fv-2906; CDR SEQ ID NOs: 35, 36, 45, 84, 121, 158 (antibody, V domains shown)
VH: EVQLVESGGGLVQPGGSLRLSCAASGFNFSSSSIHWVRQAPGKGLEWVAYISSSYGYTYYADSVKGRFTISADTSKNTAYLQMNSLRAEDTAVYYCARTVRGSKKPYFSGWAMDYWGQGTLVTVSS
VL: DIQMTQSPSSLSASVGDRVTITCRASQSVSSAVAWYQQKPGKAPKLLIYSASSLYSGVPSRFSGSRSGTDFTLTISSLQPEDFATYYCQQWSWGFLITFGQGTKVEIK
percent growth inhibition, ASPC-1 2 μg/ml [1]: 20.56%
percent growth inhibition, PATU8988s 10 μg/ml [2]: −30.04%
percent growth inhibition, HPAFII 2 μg/ml [3]: 15.24%
percent growth inhibition, HPAFII 10 μg/ml [3]: 14.98%
percent growth inhibition, RWP1 10 μg/ml [4]: 5.47%
percent growth inhibition, ASPC-1 10 μg/ml [5]: 35.20%
Median fluorescence, Frizzled CRD overexpressed on CHO cells: None [9]: 3.89
percent growth inhibition, PATU8988s 2 μg/ml [10]: −17.42%
percent growth inhibition, RWP1 2 μg/ml [11]: 1.19%

Immunofluorescence binding, Frizzled CRD overexpressed on CHO cells: FZD3 [6]: −
Immunofluorescence binding, Frizzled CRD overexpressed on CHO cells: FZD8 [7]: ++
Immunofluorescence binding, Frizzled CRD overexpressed on CHO cells: FZD7 [8]: +
B3: Fab-2902: anti-FZD5 Fab with antibody variable region Fv-2902; CDR SEQ ID NOs: 35, 36, 41, 80, 117, 153 (antibody, V domains shown)
VH: EVQLVESGGGLVQPGGSLRLSCAASGFNISYYYIHWVRQAPGKGLEWVASISSSSSSTSYADSVKGRFTISADTSKNTAYLQMNSLRAEDTAVYYCARGALDYWGQGTLVTVSS
VL: DIQMTQSPSSLSASVGDRVTITCRASQSVSSAVAWYQQKPGKAPKLLIYSASSLYSGVPSRFSGSRSGTDFTLTISSLQPEDFATYYCQQWYAFGALITFGQGTKVEIK
percent growth inhibition, ASPC-1 2 μg/ml [1]: 10.84%
percent growth inhibition, PATU8988s 10 μg/ml [2]: −32.61%
percent growth inhibition, HPAFII 2 μg/ml [3]: 25.42%
percent growth inhibition, HPAFII 10 μg/ml [3]: 21.81%
percent growth inhibition, RWP1 10 μg/ml [4]: 31.22%
percent growth inhibition, ASPC-1 10 μg/ml [5]: 17.39%
Median fluorescence, Frizzled CRD overexpressed on CHO cells: None [9]: 4.66
percent growth inhibition, PATU8988s 2 μg/ml [10]: −15.75%
percent growth inhibition, RWP1 2 μg/ml [11]: 26.56%

Immunofluorescence binding, Frizzled CRD overexpressed on CHO cells: FZD3 [6]: −
Immunofluorescence binding, Frizzled CRD overexpressed on CHO cells: FZD8 [7]: −
Immunofluorescence binding, Frizzled CRD overexpressed on CHO cells: FZD7 [8]: +
B4: Fab-2910: anti-FZD5 Fab with antibody variable region Fv-2910; CDR SEQ ID NOs: 35, 36, 49, 88, 125, 162 (antibody, V domains shown)
VH: B3 VH with Y32S, I34M, S52Y, L101M
VL: B2 VL with S92Y, W93G, G94S, F95H
percent growth inhibition, ASPC-1 2 μg/ml [1]: 39.05%
percent growth inhibition, PATU8988s 10 μg/ml [2]: −12.84%
percent growth inhibition, HPAFII 2 μg/ml [3]: 26.86%
percent growth inhibition, HPAFII 10 μg/ml [3]: 41.81%
percent growth inhibition, RWP1 10 μg/ml [4]: 54.51%
percent growth inhibition, ASPC-1 10 μg/ml [5]: 41.71%
Median fluorescence, Frizzled CRD overexpressed on CHO cells: None [9]: 2.92
percent growth inhibition, PATU8988s 2 μg/ml [10]: 8.48%
percent growth inhibition, RWP1 2 μg/ml [11]: 71.49%

Immunofluorescence binding, Frizzled CRD overexpressed on CHO cells: FZD3 [6]: −
Immunofluorescence binding, Frizzled CRD overexpressed on CHO cells: FZD8 [7]: +
Immunofluorescence binding, Frizzled CRD overexpressed on CHO cells: FZD7 [8]: ++
B5: Fab-2903: anti-FZD5 Fab with antibody variable region Fv-2903; CDR SEQ ID NOs: 35, 36, 42, 81, 118, 155 (antibody, V domains shown)
VH: B3 VH with I29L, S52Y, S53P, S54Y, S57Y, L101I
VL: B3 VL with Y92G, A93G, F94G, G95S, A96S, I98F
percent growth inhibition, ASPC-1 2 μg/ml [1]: 4.49%
percent growth inhibition, PATU8988s 10 μg/ml [2]: −16.37%
percent growth inhibition, HPAFII 2 μg/ml [3]: −10.34%
percent growth inhibition, HPAFII 10 μg/ml [3]: −10.98%
percent growth inhibition, RWP1 10 μg/ml [4]: 17.38%
percent growth inhibition, ASPC-1 10 μg/ml [5]: 14.86%
Median fluorescence, Frizzled CRD overexpressed on CHO cells: None [9]: 4.07
percent growth inhibition, PATU8988s 2 μg/ml [10]: −22.81%
percent growth inhibition, RWP1 2 μg/ml [11]: 8.52%

Immunofluorescence binding, Frizzled CRD overexpressed on CHO cells: FZD3 [6]: −
Immunofluorescence binding, Frizzled CRD overexpressed on CHO cells: FZD8 [7]: +
Immunofluorescence binding, Frizzled CRD overexpressed on CHO cells: FZD7 [8]: +
B6: Fab-2907: anti-FZD5 Fab with antibody variable region Fv-2907; CDR SEQ ID NOs: 35, 36, 46, 85, 122, 159 (antibody, V domains shown)
VH: EVQLVESGGGLVQPGGSLRLSCAASGFNIYSSYMHWVRQAPGKGLEWVASISSYSGSTYYADSVKGRFTISADTSKNTAYLQMNSLRAEDTAVYYCARSSWGAYIVSYGFDYWGQGTLVTVSS
VL: B3 VL with W91V, Y92G, A93Y, F94W, G95W, A96G
percent growth inhibition, ASPC-1 2 μg/ml [1]: 10.02%
percent growth inhibition, PATU8988s 10 μg/ml [2]: −42.69%
percent growth inhibition, HPAFII 2 μg/ml [3]: 15.15%
percent growth inhibition, HPAFII 10 μg/ml [3]: 14.20%
percent growth inhibition, RWP1 10 μg/ml [4]: 28.57%
percent growth inhibition, ASPC-1 10 μg/ml [5]: 23.78%
Median fluorescence, Frizzled CRD overexpressed on CHO cells: None [9]: 3.43
percent growth inhibition, PATU8988s 2 μg/ml [10]: −12.76%
percent growth inhibition, RWP1 2 μg/ml [11]: 8.52%

Immunofluorescence binding, Frizzled CRD overexpressed on CHO cells: FZD3 [6]: −
Immunofluorescence binding, Frizzled CRD overexpressed on CHO cells: FZD8 [7]: −
Immunofluorescence binding, Frizzled CRD overexpressed on CHO cells: FZD7 [8]: +
B7: Fab-2909: anti-FZD5 Fab with antibody variable region Fv-2909; CDR SEQ ID NOs: 35, 36, 48, 87, 124, 161 (antibody, V domains shown)
VH: B2 VH with F29I, S33Y, I34M, Y50S, Y55S, Y59S
VL: B3 VL with W91S, Y92W, A93S, F94Y, G95H, A96Y
percent growth inhibition, ASPC-1 2 μg/ml [1]: −6.84%
percent growth inhibition, PATU8988s 10 μg/ml [2]: −16.04%
percent growth inhibition, HPAFII 2 μg/ml [3]: 2.87%
percent growth inhibition, HPAFII 10 μg/ml [3]: −2.57%
percent growth inhibition, RWP1 10 μg/ml [4]: 14.89%
percent growth inhibition, ASPC-1 10 μg/ml [5]: −9.30%
Median fluorescence, Frizzled CRD overexpressed on CHO cells: None [9]: 3.4
percent growth inhibition, PATU8988s 2 μg/ml [10]: −9.95%
percent growth inhibition, RWP1 2 μg/ml [11]: 12.89%
